Target: monobody L3 E29Q labeled with EDANS at A12C
Assay: fluorescence polarisation

B1: Fluc homologue from Bordetella pertussis, Bpe (natural protein)
chain: MLTYAPLNFIAIGIGATLGAWLRWVLGLRLNGAGWPWGTLTANLVGGYLIGVMVALIASHPEWPAWIRLAAVTGFLGGLTTFSTFSAETVDMLERGVYATAAAYAGASLAGSLAMTGLGLATVRLLLR
For B1, the Kd was 150 nM.
